Laboratory results reported in patent US11535851B2, “Reagents for treatment of hepatitis B virus (HBV) infection and use thereof” (priority 2016, dated 2022).

System: Luciferase reporter constructs carrying effector or effector complement sequences (HBV transcripts)
Assay: Dual-luciferase reporter assay (strand preference activity) in HEK293 cells
Assay type: cell-based
Settings: FIG. 1A
Description: Efficacy of the ddRNAi constructs expressing shmiRs or shRNAs of the disclosure to knockdown HBV transcripts is determined using dual-luciferase reporter assays in HEK293 cells.
Plasmid reporter constructs based on the pGL3 Luciferase Reporter Vector are constructed for effector and effector complement sequences from each of the shmiRs and shRNAs of the disclosure. Luciferase reporter constructs e.g., firefly luciferase reporter constructs, are generated by inserting the respective effector sequence or effector complement sequence of the shmiRs or shRNAs (as appropriate) with 20 bp flanking sequences at each end into the pGL3-control vector (Promega, Madison, Wis.). The inserts are subcloned using FseI and XbaI restriction enzyme sites following the luciferase reporter gene.
The dual-luciferase reporter assays are performed in HEK293 cells (ATCC). The HEK293 cells are cultured in DMEM medium containing 10% fetal bovine serum, 2 mM glutamine, penicillin (100 U/mL), and streptomycin (100 μg/mL) at 37° C. humid incubator with 5% CO2. The HEK293 cell are seeded at a density of 2×10^4 cells per well into 96-well culture plate one day prior to transfection.
ddRNAi expression constructs described in Example 1 (i.e., ddRNAi constructs designated HBV-shmiR1 to HBV-shmiR16, HBV-shmiRx3-v1 and HBV-shmiRx3-v2) are synthesized and inserted into an appropriate plasmid vector e.g., a pSsh vector, optionally with a proximal sequence element 7 (PSE7) for constructs expressing shRNAs.
Expression vectors comprising the ddRNAi expression constructs are co-transfected into HEK293 cells with a Luciferase reporter construct e.g., a firefly luciferase reporter construct, expressing an effector sequence or effector complement sequence of the corresponding shmiR or shRNA (as appropriate) at a ratio of 10:1 (ddRNAi expression construct: Luciferase reporter construct) using 0.3 uL of Lipofectamine 2000 reagent (Life Technologies, Carlsbad, Calif.) according to manufacturer's instructions. Cells are also transfected with 1 ng of a Renilla reporter construct (serving as a transfection control). 48 hour post-transfection, cell lysates are collected and analyzed using Dual Luciferase Reporter Assay System (Promega, Madison, Wis.). The firefly/Renilla activity ratios are determined for each transfection. Percentage inhibition of reporter expression is calculated relative to a negative control e.g., a construct expressing a random non-targeting sequence. The experiment is performed in replicate.
In addition, the three ddRNAi shmiR constructs (i.e., the ddRNAi shmiR constructs expressing shmiR6, shmiR15 and shmiR12 respectively) were compared for strand preference activity relative to their shRNA expressing counterparts.
The influence of addition of an ‘A’ nucleotide at the 3′ end or a ‘G’ nucleotide at the 5′ end of the sense sequence on thermodynamics of the shmiR variant was also assessed. The idea is to allow for the antisense (or effector) strand to be preferentially loaded into the RISC complex for functional RNAi activity.

B1: shmiR-6: shmiR targeting HBV; RNA SEQ ID NO: 48, encoded by DNA SEQ ID NO: 64 (nucleic acid)
chain: GGUAUAUUGCUGUUGACAGUGAGCGACAGGUCCCCUAGAAGAAGAAACUGUGAAGCAGAUGGGUUUCUUCUUCUAGGGGACCUGCCGCCUACUGCCUCGGACUUCAA
modifications: expressed or natural sequence
Compared directly to corresponding shRNA constructs
  activity of constructs in luciferase reporter assay: more effective than the corresponding shRNA constructs
Relative to shRNA expressing counterparts
  antisense (effector) strand activity (strand preference activity): higher antisense (effector) strand activity relative to the corresponding shRNAs
